Consider 41 molecules from US20250304927A1, “PRO-PEPTIDE VARIANTS FOR MODULATING ACTIVITY OF TRANSGLUTAMINASES” (CURIE CO. INC., priority 2022, published 2025).

A value given as a limit tells only on which side of the number the result lay.

The chains are these.
T1: thermostable variant of Streptomyces mobaraensis transglutaminase (Streptomyces mobaraensis, UniProt P81453 79-407)
T1 sequence: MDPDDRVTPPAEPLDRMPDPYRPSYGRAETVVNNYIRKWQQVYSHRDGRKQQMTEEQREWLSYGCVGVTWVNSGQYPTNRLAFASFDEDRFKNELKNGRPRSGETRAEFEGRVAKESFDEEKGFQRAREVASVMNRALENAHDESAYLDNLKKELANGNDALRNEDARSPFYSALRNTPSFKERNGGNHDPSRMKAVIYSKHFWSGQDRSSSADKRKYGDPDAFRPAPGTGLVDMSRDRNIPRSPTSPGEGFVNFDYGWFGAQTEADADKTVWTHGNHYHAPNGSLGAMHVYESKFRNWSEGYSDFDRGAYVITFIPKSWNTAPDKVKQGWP

For one experiment, the target named is T1, thermostable variant of Streptomyces …. The experiment is described as follows: cell-based or functional assay.
Turning to MDNGAGEETKSYAETYRLTADDVANINALNESAPAASSAGPSFRA [pro-peptide truncation variant ΔP46], the “Improvement in binding affinity of inhibitory peptide relative to WT” value was more than 1.2 fold.

Consider MINGAGEETKSYAETYRLTADDVANINALNESAPAASSAGPSFRAP [pro-peptide variant D2I], for which the “Improvement in binding affinity of inhibitory peptide relative to WT” value was more than 1.2 fold.

With MDNGAGHETKSYAETYRLTADDVANINALNESAPAASSAGPSFRAP [pro-peptide variant E7H], the “Improvement in binding affinity of inhibitory peptide relative to WT” value is more than 1.2 fold.

On to MDNGAGEITKSYAETYRLTADDVANINALNESAPAASSAGPSFRAP [pro-peptide variant E8I], for which the “Improvement in binding affinity of inhibitory peptide relative to WT” value is more than 1.2 fold.

Consider MDNGAGRETKSYAETYRLTADDVANINALNESAPAASSAGPSFRAP [pro-peptide variant E7R], for which the “Improvement in binding affinity of inhibitory peptide relative to WT” value was more than 1.2 fold.

Take MQNGAGEETKSYAETYRLTADDVANINALNESAPAASSAGPSFRAP [pro-peptide variant D2Q]: the “Improvement in binding affinity of inhibitory peptide relative to WT” value is more than 1.2 fold.

In the case of MDNGAGEETKSYAETYRLTAKDVANINALNESAPAASSAGPSFRAP [pro-peptide variant D21K], the “Improvement in binding affinity of inhibitory peptide relative to WT” value was more than 1.2 fold.

With MDNGAGEETKSYAETYRFTADDVANINALNESAPAASSAGPSFRAP [pro-peptide variant L18F], the “Improvement in binding affinity of inhibitory peptide relative to WT” value was more than 1.2 fold.

For MDNGAGEETKSYAETYRLTADNVANINALNESAPAASSAGPSFRAP [pro-peptide variant D22N], the “Improvement in binding affinity of inhibitory peptide relative to WT” value was more than 1.2 fold.

In the case of MDNGAGEEEKSYAETYRLTADDVANINALNESAPAASSAGPSFRAP [pro-peptide variant T9E], the “Improvement in binding affinity of inhibitory peptide relative to WT” value is more than 1.2 fold.

Turning to MDNGAGEETKSYAETYRLTADDVANVNALNESAPAASSAGPSFRAP [pro-peptide variant I26V], the “Improvement in binding affinity of inhibitory peptide relative to WT” value was more than 1.2 fold.

Turning to MDNGAGNETKSYAETYRLTADDVANINALNESAPAASSAGPSFRAP [pro-peptide variant E7N], the “Improvement in binding affinity of inhibitory peptide relative to WT” value was more than 1.2 fold.

For MFNGAGEETKSYAETYRLTADDVANINALNESAPAASSAGPSFRAP [pro-peptide variant D2F], the “Improvement in binding affinity of inhibitory peptide relative to WT” value is more than 1.2 fold.

For the molecule MDNGAGEETKSYAEQYRLTADDVANINALNESAPAASSAGPSFRAP [pro-peptide variant T15Q], the “Improvement in binding affinity of inhibitory peptide relative to WT” value was more than 1.2 fold.

As to MDNGAGEETKSYAETYRLTADHVANINALNESAPAASSAGPSFRAP [pro-peptide variant D22H], the “Improvement in binding affinity of inhibitory peptide relative to WT” value was more than 1.2 fold.

Regarding MPNGAGEETKSYAETYRLTADDVANINALNESAPAASSAGPSFRAP [pro-peptide variant D2P], the “Improvement in binding affinity of inhibitory peptide relative to WT” value was more than 1.2 fold.

On to MDNGAGEEPKSYAETYRLTADDVANINALNESAPAASSAGPSFRAP [pro-peptide variant T9P], for which the “Improvement in binding affinity of inhibitory peptide relative to WT” value is more than 1.2 fold.

With MDNGAGEEIKSYAETYRLTADDVANINALNESAPAASSAGPSFRAP [pro-peptide variant T9I], the “Improvement in binding affinity of inhibitory peptide relative to WT” value was more than 1.2 fold.

MDNGAGDETKSYAETYRLTADDVANINALNESAPAASSAGPSFRAP [pro-peptide variant E7D]: the “Improvement in binding affinity of inhibitory peptide relative to WT” value is more than 1.2 fold.

For MDNGAGEVTKSYAETYRLTADDVANINALNESAPAASSAGPSFRAP [pro-peptide variant E8V], the “Improvement in binding affinity of inhibitory peptide relative to WT” value was more than 1.2 fold.

Consider MDNGAGEECKSYAETYRLTADDVANINALNESAPAASSAGPSFRAP [pro-peptide variant T9C], for which the “Improvement in binding affinity of inhibitory peptide relative to WT” value was more than 1.2 fold.

Consider MDNGAGEETKSYAETYRLTADDVMNINALNESAPAASSAGPSFRAP [pro-peptide variant A24M], for which the “Improvement in binding affinity of inhibitory peptide relative to WT” value is more than 1.2 fold.

With MDNGAGEEDKSYAETYRLTADDVANINALNESAPAASSAGPSFRAP [pro-peptide variant T9D], the “Improvement in binding affinity of inhibitory peptide relative to WT” value was more than 1.2 fold.

The next experiment shares this target. The experiment is described as follows: cell-based or functional assay. This is another data set of the same source.
Turning to MDNGAGEETKSYAETYRLTADDVANINALNESAPAAS [pro-peptide truncation variant ΔS38-P46], the “Improvement in pH responsiveness of inhibitory peptide relative to WT” value is more than 1.2 fold.

Regarding MDNGAGEETKSYAETYRLTADDVANINALNESAPAASSAGPSFRA [pro-peptide truncation variant ΔP46], the “Improvement in pH responsiveness of inhibitory peptide relative to WT” value was more than 1.2 fold.

Turning to MINGAGEETKSYAETYRLTADDVANINALNESAPAASSAGPSFRAP [pro-peptide variant D2I], the “Improvement in pH responsiveness of inhibitory peptide relative to WT” value is more than 1.2 fold.

Turning to MDNGAGEETKSYAETYRRTADDVANINALNESAPAASSAGPSFRAP [pro-peptide variant L18R], the “Improvement in pH responsiveness of inhibitory peptide relative to WT” value was more than 1.2 fold.

In the case of MDNGAGEETKSYAETYRLTADDVANINALNESAPAASRAGPSFRAP [pro-peptide variant S38R], the “Improvement in pH responsiveness of inhibitory peptide relative to WT” value is more than 1.2 fold.

As for MDNGAGEETKSYAYTYRLTADDVANINALNESAPAASSAGPSFRAP [pro-peptide variant E14Y], the “Improvement in pH responsiveness of inhibitory peptide relative to WT” value was more than 5 fold.

Regarding MDNGAGEETKSYAETYRLTADDVCNINALNESAPAASSAGPSFRAP [pro-peptide variant A24C], the “Improvement in pH responsiveness of inhibitory peptide relative to WT” value is more than 1.2 fold.

As to MQNGAGEETKSYAETYRLTADDVANINALNESAPAASSAGPSFRAP [pro-peptide variant D2Q], the “Improvement in pH responsiveness of inhibitory peptide relative to WT” value is more than 1.2 fold.

For the molecule MDNGAGEETKSYAETYRLTADDVANINALNESAPAASSAGPSFRAM [pro-peptide variant P46M], the “Improvement in pH responsiveness of inhibitory peptide relative to WT” value was more than 1.2 fold.

Take MDNGAGEETKSYAETYRCTADDVANINALNESAPAASSAGPSFRAP [pro-peptide variant L18C]: the “Improvement in pH responsiveness of inhibitory peptide relative to WT” value was more than 1.2 fold.

Turning to MDNGAGNETKSYAETYRLTADDVANINALNESAPAASSAGPSFRAP [pro-peptide variant E7N], the “Improvement in pH responsiveness of inhibitory peptide relative to WT” value was more than 5 fold.

For MDNGAGEETKSYAETYRLTADDVANINALNESAPAASSAGPSFRAF [pro-peptide variant P46F], the “Improvement in pH responsiveness of inhibitory peptide relative to WT” value was more than 1.2 fold.

On to MDNGAGEETKSYAETYRLTATDVANINALNESAPAASSAGPSFRAP [pro-peptide variant D21T], for which the “Improvement in pH responsiveness of inhibitory peptide relative to WT” value was more than 1.2 fold.

As to MPNGAGEETKSYAETYRLTADDVANINALNESAPAASSAGPSFRAP [pro-peptide variant D2P], the “Improvement in pH responsiveness of inhibitory peptide relative to WT” value was more than 5 fold.

In the case of MDNGAGEESKSYAETYRLTADDVANINALNESAPAASSAGPSFRAP [pro-peptide variant T9S], the “Improvement in pH responsiveness of inhibitory peptide relative to WT” value is more than 1.2 fold.

MDNGAGEETKTYAETYRLTADDVANINALNESAPAASSAGPSFRAP [pro-peptide variant S11T]: the “Improvement in pH responsiveness of inhibitory peptide relative to WT” value is more than 1.2 fold.

As for MDNGAGEETKSYAETYRLTADSVANINALNESAPAASSAGPSFRAP [pro-peptide variant D22S], the “Improvement in pH responsiveness of inhibitory peptide relative to WT” value is more than 1.2 fold.

Regarding MDNGAGEETKAYAETYRLTADDVANINALNESAPAASSAGPSFRAP [pro-peptide variant S11A], the “Improvement in pH responsiveness of inhibitory peptide relative to WT” value was more than 1.2 fold.

As for MDNGAGEETKSYAETYRGTADDVANINALNESAPAASSAGPSFRAP [pro-peptide variant L18G], the “Improvement in pH responsiveness of inhibitory peptide relative to WT” value was more than 1.2 fold.

As for MDNGAGEETKSYAKTYRLTADDVANINALNESAPAASSAGPSFRAP [pro-peptide variant E14K], the “Improvement in pH responsiveness of inhibitory peptide relative to WT” value is more than 5 fold.

Turning to MDNGAGEETKSYAETYRLTADDVANINALNESAPAASSAGPSFRAG [pro-peptide variant P46G], the “Improvement in pH responsiveness of inhibitory peptide relative to WT” value was more than 5 fold.

For MDNGAGEETKSRAETYRLTADDVANINALNESAPAASSAGPSFRAP [pro-peptide variant Y12R], the “Improvement in pH responsiveness of inhibitory peptide relative to WT” value is more than 1.2 fold.

As to MDNGAGEETKSYAETYRVTADDVANINALNESAPAASSAGPSFRAP [pro-peptide variant L18V], the “Improvement in pH responsiveness of inhibitory peptide relative to WT” value is more than 1.2 fold.
